The source of these data is patent US20200030425 (published 2020).

This experiment deals with T1, human ICOS-Fc (human).
T1 chain: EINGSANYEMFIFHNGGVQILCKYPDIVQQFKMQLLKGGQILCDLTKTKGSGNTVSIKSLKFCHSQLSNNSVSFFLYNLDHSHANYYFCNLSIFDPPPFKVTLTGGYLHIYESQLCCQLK
Kind of experiment: SPR 37C.

“And” between values parts separate entries of the source, which are not always exact repeats. Identical values can stand only once.

B1: ICOS.33 IgG1f S267E Fab (antibody, V domains shown)
VH: EVQLVESGGGLVKPGGSLRLSCAASGFTFSDYFMHWVRQAPGKGLEWVGVIDTKSFNYATYYSDLVKGRFTISRDDSKNTLYLQMNSLKTEDTAVYYCTATIAVPYYFDYWGQGTLVTVSS
VL: DIQMTQSPSSLSASVGDRVTITCQASQDISNYLSWYQQKPGKAPKLLIYYTNLLAEGVPSRFSGSGSGTDFTFTISSLQPEDIATYYCQQYYNYRTFGPGTKVDIK
B1: the Kd was 52 nM and 65 nM.
